Measured values: patent US20140087995A1 (published 2014)
Numbered stars: 1 amine (or outer) side, 2 acyl side, 3 side chain; on linkers, the order of the positions; unused ones are H or OH. Bridge positions count the residues as written; N and C are the ends. Side chains are listed from the residue outwards. Ends that are not written are not given here. * marks the point of attachment. C20 diacid = O=C(O)CCCCCCCCCCCCCCCCCCC(=O)*; γGlu = O=C(O)[C@H](CCC(=O)[*:2])N[*:1]

T1: human amylin receptor (Amylin 3(a) receptor: human calcitonin receptor co-expressed with RAMP-3) (human, UniProt P30988 25-474; O60896 24-148, limits assumed)
T1 construct: whole, on cells; Used as cell membranes prepared from the Amylin 3(a)/CRE-luc BHK cells (Assay V); the complex is called the human amylin receptor; also called hAmylin-R; hAmylinR
T1 sequence (looked up) 1: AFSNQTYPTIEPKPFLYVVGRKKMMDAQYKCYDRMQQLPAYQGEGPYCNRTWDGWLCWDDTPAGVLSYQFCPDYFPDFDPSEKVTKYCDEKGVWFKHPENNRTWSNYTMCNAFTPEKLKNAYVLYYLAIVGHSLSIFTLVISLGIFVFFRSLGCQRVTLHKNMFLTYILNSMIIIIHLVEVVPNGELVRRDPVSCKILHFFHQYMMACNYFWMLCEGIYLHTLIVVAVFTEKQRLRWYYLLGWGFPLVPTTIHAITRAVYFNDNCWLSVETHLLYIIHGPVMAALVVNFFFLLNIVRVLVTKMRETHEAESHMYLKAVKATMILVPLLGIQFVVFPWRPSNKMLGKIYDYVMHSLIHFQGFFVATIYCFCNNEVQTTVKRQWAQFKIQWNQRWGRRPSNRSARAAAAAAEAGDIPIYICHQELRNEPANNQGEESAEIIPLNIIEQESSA
T1 sequence (looked up) 2: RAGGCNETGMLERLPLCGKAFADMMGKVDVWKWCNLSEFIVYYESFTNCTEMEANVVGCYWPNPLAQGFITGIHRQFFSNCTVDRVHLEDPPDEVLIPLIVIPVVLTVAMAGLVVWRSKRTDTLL


Molecular target: T1, human amylin receptor (Amylin 3(a) …)
Assay: SPA competition binding, displacement of 125I-rat amylin from membranes of BHK cells with human calcitonin receptor + RAMP-3 (Assay V)
Procedure, shortened: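 One-site competition analysis of SPA counts yielded IC₅₀ as a measure of affinity. Membranes were at 35 ng/μL final; incubation was 120 min at 25° C, pH 7.4.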

| IC50 [nM] | Binder |
| --- | --- |
| 0.076 | K([γGlu-γGlu-C20 diacid])CNTATCATQRLASFLRHSSPNFGAIPSSTNVGPETY-NH2 (disulfide 2-7; N-terminus assumed; SMILES CC[C@H](C)[C@H](NC(=O)[C@H](C)NC(=O)CNC(=O)[C@H](Cc1ccccc1)NC(=O)[C@H](CC(N)=O)NC(=O)[C@@H]1CCCN1C(=O)[C@H](CO)NC(=O)[C@H](CO)NC(=O)[C@H](Cc1c[nH]cn1)NC(=O)[C@H](CCCNC(=N)N)NC(=O)[C@H](CC(C)C)NC(=O)[C@H](Cc1ccccc1)NC(=O)[C@H](CO)NC(=O)[C@H](C)NC(=O)[C@H](CC(C)C)NC(=O)[C@H](CCCNC(=N)N)NC(=O)[C@H](CCC(N)=O)NC(=O)[C@@H](NC(=O)[C@H](C)NC(=O)[C@@H]1CSSC[C@H](NC(=O)[C@@H](N)CCCCNC(=O)CC[C@H](NC(=O)CC[C@H](NC(=O)CCCCCCCCCCCCCCCCCCC(=O)O)C(=O)O)C(=O)O)C(=O)N[C@@H](CC(N)=O)C(=O)N[C@@H]([C@@H](C)O)C(=O)N[C@@H](C)C(=O)N[C@@H]([C@@H](C)O)C(=O)N1)[C@@H](C)O)C(=O)N1CCC[C@H]1C(=O)N[C@@H](CO)C(=O)N[C@@H](CO)C(=O)N[C@H](C(=O)N[C@@H](CC(N)=O)C(=O)N[C@H](C(=O)NCC(=O)N1CCC[C@H]1C(=O)N[C@@H](CCC(=O)O)C(=O)N[C@H](C(=O)N[C@@H](Cc1ccc(O)cc1)C(N)=O)[C@@H](C)O)C(C)C)[C@@H](C)O, modifications are with respect to human amylin; also called compound 120) |
| 0.14 | K([γGlu-C20 diacid])CNTATCATQRLAEFLRHSSPNFGAIPSSTNVGPETY-NH2 (disulfide 2-7; N-terminus assumed; SMILES CC[C@H](C)[C@H](NC(=O)[C@H](C)NC(=O)CNC(=O)[C@H](Cc1ccccc1)NC(=O)[C@H](CC(N)=O)NC(=O)[C@@H]1CCCN1C(=O)[C@H](CO)NC(=O)[C@H](CO)NC(=O)[C@H](Cc1c[nH]cn1)NC(=O)[C@H](CCCNC(=N)N)NC(=O)[C@H](CC(C)C)NC(=O)[C@H](Cc1ccccc1)NC(=O)[C@H](CCC(=O)O)NC(=O)[C@H](C)NC(=O)[C@H](CC(C)C)NC(=O)[C@H](CCCNC(=N)N)NC(=O)[C@H](CCC(N)=O)NC(=O)[C@@H](NC(=O)[C@H](C)NC(=O)[C@@H]1CSSC[C@H](NC(=O)[C@@H](N)CCCCNC(=O)CC[C@H](NC(=O)CCCCCCCCCCCCCCCCCCC(=O)O)C(=O)O)C(=O)N[C@@H](CC(N)=O)C(=O)N[C@@H]([C@@H](C)O)C(=O)N[C@@H](C)C(=O)N[C@@H]([C@@H](C)O)C(=O)N1)[C@@H](C)O)C(=O)N1CCC[C@H]1C(=O)N[C@@H](CO)C(=O)N[C@@H](CO)C(=O)N[C@H](C(=O)N[C@@H](CC(N)=O)C(=O)N[C@H](C(=O)NCC(=O)N1CCC[C@H]1C(=O)N[C@@H](CCC(=O)O)C(=O)N[C@H](C(=O)N[C@@H](Cc1ccc(O)cc1)C(N)=O)[C@@H](C)O)C(C)C)[C@@H](C)O, modifications are with respect to human amylin) |
